B1: Far upstream element-binding protein 1, residues 184 to 257; numbered along this chain, Q96AE4 (parent)
chain: GNAVQEIMIPASKAGLVIGKGGETIKQLQERAGVKMVMIQDGPQNTGADKPLRITGDPYKVQQAKEMVLELIRD

Variants of: B1
Assay: abundance fitness (aPCA) (normalised: wild type 0, dead -1); higher = more abundant; growth selection in yeast, the domain comes from the species named
Settings: Homo sapiens

Abundance fitness: each site, then its substitutions
K20: T -0.035; D 0.049; P -0.026; E -0.01; A 0.02; H -0.045; N -0.016; G -0.105; I -0.129; Y -0.023; V -0.031; F -0.07; S -0.042; W -0.166; C -0.14; M -0.112
L16: S -0.122; Y -0.045; P -0.581; A -0.028; F 0.003; T -0.058; E -0.06; N -0.103; C -0.147; I -0.048; Q -0.093; G -0.191; R -0.087; K -0.008; D -0.053; W -0.068; M -0.018; H -0.15
Q27: L -0.083; D -0.005; R -0.011; A -0.05; C -0.08; E -0.001; I -0.019; G -0.013; M -0.008; K 0.032; N -0.012; H -0.008
K26: M -0.122; V -0.157; C -0.179; D -0.111; I 0.013; G -0.098; N -0.09; R -0.021; P -0.447; F -0.129; Y -0.041; T -0.066; E -0.093; H -0.198; L -0.087
G21: V -0.219; T -0.05; R 0.003; K 0.015; I -0.278; H -0.015; F -0.05; E -0.059; L -0.1; C -0.076; S -0.033; Q -0.028; N 0.05; M -0.033; P -0.493; D -0.024
G15: W -0.005; Y -0.035; V -0.026; E 0.04; T -0.093; P -0.128; S -0.04; M 0.042; A -0.126; I -0.028; Q -0.031; R -0.041; C 0.127; D -0.031; N 0.011; L -0.026
I25: V -0.125; G -0.624; P -0.64; T -0.361; L 0.002; H -0.324; D -0.359; S -0.387; K -0.371; F -0.158; M 0.03; E -0.638; R -0.316; Y -0.332; C -0.267; A -0.32
A11: K -0.011; Y -0.089; I -0.096; Q -0.078; M -0.094; L -0.092; C -0.034; T -0.08; N 0.021; V -0.071; G -0.098; F -0.13; D -0.014; R -0.1; E -0.098; H -0.133; W -0.17
G22: A 0.003; R -0.116; P -0.328; S -0.114; Y -0.237; K -0.14; E -0.056; T -0.29; Q -0.075; C -0.106; F -0.145; I -0.417; V -0.261; L -0.157; H -0.127; M -0.115
I7: Y -0.597
G19: Q -0.363; R -0.438; L -0.598; V -0.763; I -0.931; P -0.629; D -0.204; M -0.551; K -0.445; Y -0.685; C -0.473; N -0.278; E -0.297; S -0.366; A -0.339; T -0.371; F -0.519; H -0.376
T24: W -0.224; K 0.007; I -0.11; S -0.078; V -0.029; Q -0.012; F -0.101; L -0.099; D -0.208; Y -0.116; M 0.002; E -0.08; A -0.075; C -0.061; N -0.075; P -0.206; R -0.013; H -0.029; G -0.008
A14: T 0.035; I 0.039; F -0.022; Y -0.039; G -0.193; R 0.001; H 0.034; L 0.042; S -0.049; V -0.017; C 0.031; D -0.109; P -0.643; K -0.065; M 0.033; E -0.014; N -0.061; Q 0.028
M8: T -0.106; W -0.164; R -0.074; Q -0.03; Y -0.133; G -0.151; L -0.075; H -0.102; S -0.121; E -0.166; A -0.124; C -0.339; P -0.094; I -0.011; V -0.323; D -0.23; N -0.078
E23: D -0.037; P -0.434; T 0.041; V -0.063; W -0.087; K 0.062; R 0.136; I -0.051; M -0.041; L -0.051; Q -0.021; C -0.011; A 0.042; H 0.072; Y -0.067; S 0.043; F -0.101; N -0.026; G 0.018
S12: F -0.207; D 0.004; M -0.071; Q -0.077; I -0.032; T 0.001; V -0.059; C -0.133; W -0.123; H -0.018; L -0.112; R -0.025; P -0.008; K 0.011; N 0; Y -0.13; E -0.016; A 0.012; G 0.002
P10: E -0.364; R -0.513; S -0.367; W -1.22; G -0.557; I -0.903; M -0.678; T -0.456; N -0.299; L -0.922; C -0.598; F -1.13; V -0.946; A -0.468; Y -1.03; H -0.398; K -0.287; D -0.355; Q -0.391
I18: T 0.011; R -0.104; Y -0.106; E -0.028; Q -0.058; L 0.008; S -0.09; C -0.12; D -0.152; K -0.117; G -0.148; A 0.038; M -0.065; V -0.018; P -0.292; H -0.009
I9: V 0.009; L -0.087; Q -0.768; Y -0.891; H -0.905; M -0.312; S -0.913; P -0.905; W -0.964; F -0.737; A -1; N -0.785; T -0.749
K13: V -0.091; W -0.3; F -0.182; I -0.015; G -0.231; T -0.218; S -0.078; Y -0.091; R -0.187; Q -0.035; C -0.008; D -0.155; A -0.094; L -0.114; E -0.139; P -0.659; H -0.032
V17: R -0.687; D -0.479; Y -0.428; Q -0.703; A -0.427; H -0.589; M -0.08; C -0.272; G -0.599; N -0.594; E -0.503; I -0.06; P -0.759; W -0.294; S -0.505; K -0.679
